Results on seven molecules are retold here after publication PMC5736716, “A hydrophobic anchor mechanism defines a deacetylase family that suppresses host response against YopJ effectors” (Nature Communications, 2017).

One data set addresses HA:AvrBsT (Xanthomonas euvesicatoria, UniProt A0ABS8LK00). Type of data set: biochemical.
A further data set addresses T1, AtTIPSY1 (Arabidopsis thaliana, UniProt Q8GYK2).
T1 sequence (Q8GYK2 1-262): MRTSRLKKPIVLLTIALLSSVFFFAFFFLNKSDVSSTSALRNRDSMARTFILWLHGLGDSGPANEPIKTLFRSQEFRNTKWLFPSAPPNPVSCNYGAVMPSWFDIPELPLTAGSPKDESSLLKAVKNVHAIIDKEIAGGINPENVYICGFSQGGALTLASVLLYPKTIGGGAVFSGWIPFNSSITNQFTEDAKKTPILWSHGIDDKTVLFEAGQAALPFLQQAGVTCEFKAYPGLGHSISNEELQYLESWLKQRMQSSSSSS
The experiment in a line: colorimetric p-nitrophenol release at […] nm. Type of data set: biochemical. As to conditions: 20 mM HEPES, 150 mM NaCl, pH 7.52-7.55, 0.01% Triton X-100, room temperature.

Data set [1] has as its system CC(=O)Oc1ccc([N+](=O)[O-])cc1. Nature of the data set: purified protein. As to conditions: 20 mM HEPES, 150 mM NaCl, pH 7.52-7.55, 0.01% Triton X-100, room temperature; pH 7.0.
Data set [2] relates to CCCC(=O)Oc1ccc([N+](=O)[O-])cc1. The experiment in a line: purified protein. As to conditions: 20 mM HEPES, 150 mM NaCl, pH 7.52-7.55, 0.01% Triton X-100, room temperature; pH 7.0.
Data set [3] relates to CCCCC(=O)Oc1ccc([N+](=O)[O-])cc1. Nature of the data set: purified protein. Conditions: 20 mM HEPES, 150 mM NaCl, pH 7.52-7.55, 0.01% Triton X-100, room temperature; pH 7.0.
Substrate in data set [4]: CC(=O)Oc1ccc([N+](=O)[O-])cc1
The experiment in a line: purified protein. As to conditions: 20 mM HEPES, 150 mM NaCl, pH 7.52-7.55, 0.01% Triton X-100, room temperature; pH 7.0. This is another data set of the same source.

Substrate in data set [5]: CCCC(=O)Oc1ccc([N+](=O)[O-])cc1
Nature of the data set: purified protein. As to conditions: 20 mM HEPES, 150 mM NaCl, pH 7.52-7.55, 0.01% Triton X-100, room temperature; pH 7.0. The source holds these as a separate data set.

Substrate in data set [6]: CCCCC(=O)Oc1ccc([N+](=O)[O-])cc1
Nature of the data set: purified protein. Conditions: 20 mM HEPES, 150 mM NaCl, pH 7.52-7.55, 0.01% Triton X-100, room temperature; pH 7.0. This is another data set of the same source.

With `CC(=O)SCCNC(=O)CCNC(=O)[C@H](O)C(C)(C)COP(=O)(O)OP(=O)(O)OC[C@H]1O[C@@H](n2cnc3c(N)ncnc32)[C@H](O)[C@@H]1OP(=O)(O)O` [[Acetyl-1-^14C]-Acetyl Coenzyme A], the “autoradiography of auto-acetylation on anti-HA beads” value at HA:AvrBsT is “led to auto-acetylation of the wild type protein, but not the enzymatically inactive mutant”.

Turning to `CCCCCC(=O)Oc1ccc([N+](=O)[O-])cc1` [pNP hexanoate], the Michaelis-Menten parameters result on AtTIPSY1 is reported as “allowed the protein to hydrolyze para-nitrophenyl hexanoate, like AtTIPSY1 is able to”.

On to AtSOBER1 (Arabidopsis thaliana; F65L), for which, in data set [1], the Km was 3.12 ± 0.44 × 10^-4 M and the kcat is 1.88 ± 0.23 × 10^2 s-1. In data set [2], the Km is 4.80 ± 0.23 × 10^-5 M and the kcat is reported as 1.10 ± 0.18 × 10^1 s-1.

For the molecule AtSOBER1 (Arabidopsis thaliana; L63A), the Michaelis constant (Km) was 6 mM in data set [1], 30 µM in data set [2] and 4 µM in data set [3].

AtTIPSY1 (Arabidopsis thaliana; L110F): in data set [1], the Michaelis constant (Km) was 1.75 ± 0.33 × 10^-3 M and the kcat is reported as 4.82 ± 0.32 × 10^2 s-1.

B1: AtSOBER1 (Arabidopsis thaliana) (protein)
chain: MARTFILWLHGLGDSGPANEPIQTQFKSSELSNASWLFPSAPFNPVTCNNGAVMRSWFDVPELPFKVGSPIDESSVLEAVKNVHAIIDQEIAEGTNPENVFICGLSQGGALTLASVLLYPKTLGGGAVLSGWVPFTSSIISQFPEEAKKTPILWSHGTDDRMVLFEAGQAALPFLKEAGVTCEFKAYPGLGHSISNKELKYIESWIKRRLKGSSSTCLQLNCLKEMFH
For the molecule B1, the Km came to 158 µM in “purified protein [4]”, 227 µM in “purified protein [5]” and 327 µM in “purified protein [6]”.

B2: AtTIPSY1 (Arabidopsis thaliana) (protein)
chain: T1 sequence (Q8GYK2 1-262)
B2: the Michaelis constant (Km) in “purified protein [4]” is on record as 1.75 ± 0.18 × 10^-3 M; in the data set “purified protein [5]”, 5.03 ± 0.41 × 10^-4 M; in the data set “purified protein [6]”, 3.07 ± 0.29 × 10^-4 M. The kcat in the data set “purified protein [6]” is 6.46 ± 0.39 × 10^1 s-1.

What is called Km is the concentration of substrate that gives half-maximal velocity.
